Source: PMC2997469 (Bioorganic & medicinal chemistry letters, 2010)
No end group written: not given here.

Assays:
[1] = biological target: T1, XIAP protein containing linker-BIR2–BIR3; assay: fluorescence polarisation
T1 chain: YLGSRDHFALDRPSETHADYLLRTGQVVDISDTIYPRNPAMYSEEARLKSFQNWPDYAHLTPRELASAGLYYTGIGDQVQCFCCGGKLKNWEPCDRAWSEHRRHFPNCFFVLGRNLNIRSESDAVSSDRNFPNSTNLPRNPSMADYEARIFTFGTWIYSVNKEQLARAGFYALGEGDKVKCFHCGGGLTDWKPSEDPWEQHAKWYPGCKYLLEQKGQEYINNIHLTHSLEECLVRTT

cIAP-1 BIR3 protein = biological target: T2, cIAP-1 BIR3 protein; assay: fluorescence polarisation
T2 chain: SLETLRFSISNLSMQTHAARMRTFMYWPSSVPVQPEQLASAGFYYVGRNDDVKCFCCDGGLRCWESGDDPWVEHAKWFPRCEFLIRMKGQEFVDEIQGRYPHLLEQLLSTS

AKPF (also: cyclopeptidic structure not given here) [PSmac-21 (compound 1), cyclopeptidic Smac mimetic]
IC50 site 1 [1]: 1 nM
IC50 site 2 [1]: 481 nM
Ki (cIAP-1 BIR3 protein): 84 ± 9 nM
